Test results from patent publication US20240343815A1.
Where two headings read alike, the source gives them in different places.

Assays:
[1] = molecular target: cynomolgus monkey IL4Rα-his protein (cynomolgus monkey); experiment: indirect ELISA, cynomolgus IL4Rα-his coated
[2] = molecular target: marmoset monkey IL4Rα-his protein (marmoset monkey); experiment: indirect ELISA, marmoset IL4Rα-his coated
[3] = molecular target: human IL4Rα on HEK293T-IL4Rα-STAT6-STAT6LUC-LB2 cells (human) (UniProt P24394); experiment: cell-based or functional assay
[4] = molecular target: human IL4Rα on HEK293T-IL4Rα-STAT6-STAT6LUC-LB2 cells (human) (UniProt P24394); experiment: cell-based or functional assay; remark: listed apart in the source
[5] = molecular target: recombinant human IL4Rα-his protein (human) (UniProt P24394); experiment: capture ELISA, mAb captured by anti-human IgG, biotinylated IL4Rα-his
[6] = molecular target: recombinant human IL4Rα-his protein (human) (UniProt P24394); experiment: IL4-IL4Rα blocking ELISA, IL4Rα-his coated, biotinylated IL4
[7] = molecular target: recombinant human IL4Rα-his protein (human) (UniProt P24394); experiment: as above; remark: listed apart in the source
[8] = molecular target: recombinant human IL4Rα-his protein (human) (UniProt P24394); experiment: SPR Biacore, mAb captured, IL4Rα-his analyte
[9] = molecular target: human IL4Rα expressed on the surface of 293F-IL4Rα cells (human) (UniProt P24394); experiment: flow cytometry on 293F-IL4Rα cells
[10] = molecular target: human IL4Rα expressed on the surface of 293F-IL4Rα cells (human) (UniProt P24394); experiment: flow cytometry on 293F-IL4Rα cells; remark: listed apart in the source
[11] = molecular target: recombinant human IL4Rα-his protein (human) (UniProt P24394); experiment: benchmark blocking ELISA, competitor benchmark coated (self-competition), biotinylated IL4Rα-his
[12] = molecular target: human IL4Rα expressed on the surface of 293F-IL4Rα cells (human) (UniProt P24394); experiment: cell-based ligand blocking FACS, 293F-IL4Rα cells, biotinylated IL4
[13] = molecular target: recombinant human IL4Rα-his protein (human) (UniProt P24394); experiment: SPR Biacore, mAb captured, IL4Rα-his analyte; remark: listed apart in the source
[14] = molecular target: recombinant human IL4Rα-his protein (human) (UniProt P24394); experiment: SPR Biacore, mAb captured, IL4Rα-his analyte; remark: listed apart in the source

Chain of marmoset monkey IL4Rα-his protein (marmoset monkey) (chain, as listed by the source limits assumed): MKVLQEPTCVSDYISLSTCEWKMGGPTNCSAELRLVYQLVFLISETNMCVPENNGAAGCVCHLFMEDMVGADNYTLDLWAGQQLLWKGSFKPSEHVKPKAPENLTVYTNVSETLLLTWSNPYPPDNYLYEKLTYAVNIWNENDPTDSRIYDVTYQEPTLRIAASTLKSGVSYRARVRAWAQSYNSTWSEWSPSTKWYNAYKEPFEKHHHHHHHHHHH
Chain of cynomolgus monkey IL4Rα-his protein (cynomolgus monkey) (chain, as listed by the source): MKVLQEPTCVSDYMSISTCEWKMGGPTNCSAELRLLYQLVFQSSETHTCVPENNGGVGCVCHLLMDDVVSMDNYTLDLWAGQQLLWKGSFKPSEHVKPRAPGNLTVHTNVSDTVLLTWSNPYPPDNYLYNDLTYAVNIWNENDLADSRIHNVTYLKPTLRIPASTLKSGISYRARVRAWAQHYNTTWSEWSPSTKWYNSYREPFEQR

B1: anti-IL4Rα antibody benchmark (dupilumab) (antibody, INN chains, looked up, V domains shown)
VH: EVQLVESGGGLEQPGGSLRLSCAGSGFTFRDYAMTWVRQAPGKGLEWVSSISGSGGNTYYADSVKGRFTISRDNSKNTLYLQMNSLRAEDTAVYYCAKDRLSITIRPRYYGLDVWGQGTTVTVSS
VL: DIVMTQSPLSLPVTPGEPASISCRSSQSLLYSIGYNYLDWYLQKSGQSPQLLIYLGSNRASGVPDRFSGSGSGTDFTLKISRVEAEDVGFYYCMQALQTPYTFGQGTKLEIKR
[1]
  EC50: 0.67 nM
[2]
  EC50: 1.72 nM
[3]
  Inhibition of IL4-induced STAT6 phosphorylation (IC50, nM): 0.37 nM
  Inhibition of IL13-induced STAT6 phosphorylation (IC50, nM): 0.48 nM
[4]
  Inhibition of IL4-induced STAT6 phosphorylation (IC50, nM): 0.7 nM
  Inhibition of IL13-induced STAT6 phosphorylation (IC50, nM): 0.84 nM
[5]
  EC50: 0.05 nM
[6]
  IC50: 2.06 nM
[7]
  IC50: 1.74 nM
[8]
  Kd: 0.466 nM
[9]
  EC50: 0.46 nM
[10]
  EC50: 0.4 nM
[11]
  IC50: 0.19 nM
[12]
  IC50: 0.42 nM
[13]
  Dissociation (%): -2.64%
  End (RU): 70 RU
  Kd: 0.188 nM
  Start (RU): 71.9 RU
  koff: 6.25e-05 s⁻¹
  kon: 333000 M⁻¹ s⁻¹
[14]
  Kd: 0.746 nM
